Data from paper PMC10996701.

Target: yeast RPA (yRPA, ScRPA) (Saccharomyces cerevisiae, UniProt P22336;P26754;P26755 1-621;1-273;1-122)
Experiment: DEER

yeast RPA (yRPA, ScRPA), sequence (P22336 whole entry, chain 1 of 3): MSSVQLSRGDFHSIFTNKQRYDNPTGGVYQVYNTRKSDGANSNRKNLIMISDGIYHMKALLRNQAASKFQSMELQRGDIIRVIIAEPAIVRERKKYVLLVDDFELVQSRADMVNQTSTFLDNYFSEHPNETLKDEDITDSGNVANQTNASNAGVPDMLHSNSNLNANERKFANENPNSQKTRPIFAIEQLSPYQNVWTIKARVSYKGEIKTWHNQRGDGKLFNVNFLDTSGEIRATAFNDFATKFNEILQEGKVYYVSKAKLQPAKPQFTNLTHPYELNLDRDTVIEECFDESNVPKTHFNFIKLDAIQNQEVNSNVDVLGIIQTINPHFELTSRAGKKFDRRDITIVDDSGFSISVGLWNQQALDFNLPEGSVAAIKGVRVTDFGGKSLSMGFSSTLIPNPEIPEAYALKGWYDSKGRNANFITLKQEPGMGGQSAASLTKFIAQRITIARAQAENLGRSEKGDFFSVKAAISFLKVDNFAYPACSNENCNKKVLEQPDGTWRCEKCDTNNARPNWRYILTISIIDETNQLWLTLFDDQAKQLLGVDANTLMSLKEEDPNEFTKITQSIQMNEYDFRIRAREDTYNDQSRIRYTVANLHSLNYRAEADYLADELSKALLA
yeast RPA (yRPA, ScRPA), sequence (P26754 whole entry, chain 2 of 3): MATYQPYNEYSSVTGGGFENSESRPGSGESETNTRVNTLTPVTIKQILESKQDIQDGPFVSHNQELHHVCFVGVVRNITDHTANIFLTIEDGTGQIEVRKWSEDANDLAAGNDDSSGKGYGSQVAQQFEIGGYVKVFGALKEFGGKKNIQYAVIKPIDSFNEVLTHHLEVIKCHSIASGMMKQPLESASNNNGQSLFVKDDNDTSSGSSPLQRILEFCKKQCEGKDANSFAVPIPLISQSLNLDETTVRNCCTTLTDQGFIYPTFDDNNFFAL
yeast RPA (yRPA, ScRPA), sequence (P26755 whole entry, chain 3 of 3): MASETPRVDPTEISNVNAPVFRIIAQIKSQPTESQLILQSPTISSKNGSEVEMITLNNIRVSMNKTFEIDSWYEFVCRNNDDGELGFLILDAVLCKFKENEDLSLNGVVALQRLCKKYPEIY

B1: (dT)22 DEER (ssDNA)
DNA: UTTTTTTTTTTTTTTTTTTTTTTUT
modifications: M = 2'-aminouridine spin-labelled with isoindoline nitroxide, at the two U positions (1 and 24)
- binding result: binds
